From publication PMC10657434, “Architecture of the baculovirus nucleocapsid revealed by cryo-EM” (Nature Communications, 2023)

B1: AC104 (VP80) (natural protein)
chain: MNDSNSLLITRLAAQILSRNMQTVDVIVDDKTLSLEEKIDTLTSMVLAVNSPPQSPPRVTSSDLAASIIKNNSKMVGNDFEMRYNVLRMAVVFVKHYPKYYNETTAGLVAEIESNLLQYQNYVNQGNYQNIEGYDSLLNKAEECYVKIDRLFKESIKKIMDDTEAFEREQEAERLRAEQTAANALLERRAQTSADDVVNRADANIPTAFSDPLPGPSAPRYMYESSESDTYMETARRTAEHYTDQDKDYNAAYTADEYNSLVKTVLLRLIEKALATLKNRLHITTIDQLKKFRDYLNSDADAGEFQIFLNQEDCVILKNLSNLASKFFNVRCVADTLEVMLEALRNNIELVQPESDAVRRIVIKMTQEIKDSSTPLYNIAMYKSDYDAIKNKNIKTLFDLYNDRLPINFLDTSATSPVRKTSGKRSAEDDLLPTRSSKRANRPEINVISSEDEQEDDDVEDVDYEKESKRRKLEDEDFLKLKALEFSKDIVNEKLQKIIVVTDGMKRLYEYCNCKNSLETLPSAANYGSLLKRLNLYNLDHIEMNVNFYELLFPLTLYNDNDNSDKTLSHQLVNYIFLASNYFQNCAKNFNYMRETFNVFGPFKQIDFMVMFVIKFNFLCDMRNFAKLIDELVPNKQPNMRIHSVLVMRDKIVKLAFSNLQFQTFSKKDKSRNTKHLQRLIMLMNANYNVI
notes: AC104 (VP80) of AcMNPV, as present in the native nucleocapsid; only Ile490-Thr664 and Asn673-Asn685 (AC104-1, AC104-2) and Asp463-Ile691 (AC104-3) are resolved and modelled; also called AC104-1; AC104-2; source: AcMNPV ODV nucleocapsids from occlusion bodies of infected Spodoptera exigua larvae; alkaline lysis, centrifugation

How the values were obtained:
[1] = target: the molecule itself; test: cryo-EM structure; head and base of native AcMNPV ODV nucleocapsids; local refinement 4.3 Å (elements common to both ends), 4.8 Å (base with AC98), 4.9 Å (plug); AlphaFold2 models docked into density and refined; partners co-purified as the native nucleocapsid
[2] = target: the molecule itself; test: cryo-EM structure; helical cylinder of native AcMNPV ODV nucleocapsids; helical reconstruction 3.9 Å, local refinement 3.2 Å; VP39 model built de novo; partners co-purified as the native nucleocapsid
[3] = target: B1; test: cryo-EM structure; head and base of native AcMNPV ODV nucleocapsids; local refinement 4.3 Å (elements common to both ends), 4.8 Å (base with AC98), 4.9 Å (plug); AlphaFold2 models docked into density and refined; partners co-purified as the native nucleocapsid; conditions: both partners purified
[4] = target: the molecule itself; test: cross-linking; purified AcMNPV nucleocapsid, 2 mM BS3 on ice 2 h, stopped with 50 mM Tris-HCl pH 7.5; mass spectrometry, pLink2

B1
binding result [1]: binds

B2: AC101 (BV/ODV-C42) (natural protein)
chain: MSAIALYLEINKLRLKIDEPMQLAIWPQLFPLLCDEHQSVQLNTDVLINFMMHVARKSQNTILNNNAAIASQYAAGNADVVAAPASAQPTPRPVINLFARANAAAPAQPSEELINMRRYRNAARKLIHHYSLNSTSSTEYKISDVVMTMIFLLRSEKYHSLFKLLETTFDDYTCRPQMTQVQTDTLLDAVRSLLEMPSTTIDLTTVDIMRSSFARCFNSPIMRYAKIVLLQNVALQRDKRTTLEELLIERGEKIQMLQPQQYINSGTEIPFCDDAEFLNRLLKHIDPYPLSRMYYNAANTMFYTTMENYAVSNCKFNIEDYNNIFKVMENIRKHSNKNSNDQDELNIYLGVQSSNAKRKKY
notes: AC101 (BV/ODV-C42) of AcMNPV, as present in the native nucleocapsid; ~110 N-terminal and ~30 C-terminal residues are not resolved; modelled parts include Glu112-Asn218, Ser219-Thr241 and Leu243-His334; also called BV/ODV-42; AC101-1; source: AcMNPV ODV nucleocapsids from occlusion bodies of infected Spodoptera exigua larvae; alkaline lysis, centrifugation
binding result [1]: binds

B3: major capsid protein VP39 (natural protein)
chain: MALVPVGMAPRQMRVNRCIFASIVSFDACITYKSPCSPDAYHDDGWFICNNHLIKRFKMSKMVLPIFDEDDNQFKMTIARHLVGNKERGIKRILIPSATNYQDVFNLNSMMQAEQLIFHLIYNNENAVNTICDNLKYTEGFTSNTQRVIHSVYATTKSILDTTNPNTFCSRVSRDELRFFDVTNARALRGGAGDQLFNNYSGFLQNLIRRAVAPEYLQIDTEELRFRNCATCIIDETGLVASVPDGPELYNPIRSSDIMRSQPNRLQIRNVLKFEGDTRELDRTLSGYEEYPTYVPLFLGYQIINSENNFLRNDFIPRANPNATLGGGAVAGPAPGVAGEAGGGIAV
notes: major capsid protein VP39 of Autographa californica multiple nucleopolyhedrovirus (AcMNPV), as present in the native nucleocapsid; regions described in the model run from Arg14 to Asn320; Native virion protein; forms disulfide-linked dimers arranged as a 14-start helical cylinder; also called VP39A; VP39B; source: AcMNPV ODV nucleocapsids from occlusion bodies of infected Spodoptera exigua …
binding result [2]: binds
binding result [3]: binds

B4: polyhedrin (natural protein)
chain: MPDYSYRPTIGRTYVYDNKYYKNLGAVIKNAKRKKHFAEHEIEEATLDPLDNYLVAEDPFLGPGKNQKLTLFKEIRNVKPDTMKLVVGWKGKEFYRETWTRFMEDSFPIVNDQEVMDVFLVVNMRPTRPNRCYKFLAQHALRCDPDYVPHDVIRIVEPSWVGSNNEYRISLAKKGGGCPIMNLHSEYTNSFEQFIDRVIWENFYKPIVYIGTDSAEEEEILLEVSLVFKVKEFAPDAPLFTGPAY
notes: polyhedrin of AcMNPV, left in the nucleocapsid sample after alkaline lysis of occlusion bodies; also called polyhedrins; source: present in the buffer of the AcMNPV nucleocapsid preparation (nucleocapsids not isolated by gradient centrifugation)
binding result [4]: binds
